Where two headings read alike, the source gives them in different places.
T1: human CCR4 carried on liposomes (human, UniProt P51679 1-360)
T1 sequence (looked up): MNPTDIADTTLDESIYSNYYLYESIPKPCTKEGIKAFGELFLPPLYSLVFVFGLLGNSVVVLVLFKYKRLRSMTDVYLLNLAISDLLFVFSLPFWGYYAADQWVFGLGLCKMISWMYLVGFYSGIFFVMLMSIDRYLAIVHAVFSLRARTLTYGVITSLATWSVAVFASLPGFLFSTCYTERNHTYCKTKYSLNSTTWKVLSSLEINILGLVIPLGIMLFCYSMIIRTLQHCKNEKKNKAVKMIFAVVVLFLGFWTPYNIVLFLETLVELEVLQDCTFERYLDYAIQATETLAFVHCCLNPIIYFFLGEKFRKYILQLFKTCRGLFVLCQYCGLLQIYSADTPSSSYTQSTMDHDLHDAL


Assays:
[1] = target: T2, human CCR8 carried on proteoliposomes (human, UniProt P51685 1-355); experiment: SPR
[2] = target: T2, human CCR8 carried on proteoliposomes; experiment: SPR; remark: listed apart in the source
[3] = target: T1, human CCR4 carried on liposomes; experiment: SPR
[4] = target: T3, human CCR8 (HA-tagged) on stably transfected HEK293 cells (human, UniProt P51685 1-355); experiment: flow cytometry on cells
[5] = target: T3, human CCR8 (HA-tagged) on stably …; experiment: flow cytometry on cells; remark: listed apart in the source

| Kd [1] | Kd [2] | koff [2] | binding result [3] | IC50 [4] | IC50 [5] | Binder |
| --- | --- | --- | --- | --- | --- | --- |
| 11.7 nM | 1.1 ± 0.4 nM | 0.00042 s⁻¹ | binds | – | – | biotinylated human recombinant CCL17 (ligand, UniProt Q92583 24-94, looked up, biotin (biotinylated; site not stated)) ARGTNVGRECCLEYFKGAIPLRKLKTWYQTSEDCSRDAIVFVTVQGRAICSDPNNKRVKNAVKYLQSLERS |
| – | – | – | – | 4.9 nM | 9.4 nM | unlabeled human recombinant CCL17 (ligand, UniProt Q92583 24-94, looked up) ARGTNVGRECCLEYFKGAIPLRKLKTWYQTSEDCSRDAIVFVTVQGRAICSDPNNKRVKNAVKYLQSLERS |
| – | – | – | – | 0.58 nM | – | unlabeled human recombinant CCL1 (ligand, UniProt P22362 24-96, looked up) KSMQVPFSRCCFSFAEQEIPLRAILCYRNTSSICSNEGLIFKLKRGKEACALDTVGWVQRHRKMLRHCPSKRK |

Reference: article PMC7616283 (Nature cardiovascular research, 2024)
